First the molecules themselves.
B1: phagemid CS1-29p (peptide)
peptide: CSGLYPWDYFMCS
modifications: disulfide 1-12 (inferred)
B2: phagemid CS1-6p (peptide)
peptide: CSFRYLWDQDRCS
modifications: disulfide 1-12 (inferred)
B3: phagemid CS1-9p (peptide)
peptide: CSGLYPWDMFRCS
modifications: disulfide 1-12 (inferred)
B4: phagemid CS1-11p (peptide)
peptide: CSFRYQWDMFRCS
modifications: disulfide 1-12 (inferred)
B5: phagemid CS1-31p (peptide)
peptide: CSFFYSLCYCWCS
modifications: disulfide (positions not given here); also: disulfide cyclised, pairing of the four Cys not given here
B6: phagemid CS1-2p (peptide)
peptide: CSLFYLWDQDRCS
modifications: disulfide 1-12 (inferred)

Positions of bridges follow the written chain, without caps; N, C: chain ends. No end group written: not given here.

One assay has as its target unrelated control antibody. The experiment in a line: phage ELISA, 10^9 phagemid per well, wells coated with control mAb. (In general: In an ELISA, binding on a coated surface is turned into a signal by an enzyme label.)
In turn, B1 came in with an ELISA (absorbance units) (absorbance units) of 0.136.
On the same count and under the same terms, the same measure for B2: 0.172; for B3: 0.204; for B4: 0.258.
Consider B5, for which the ELISA (absorbance units) (absorbance units) was 0.118.
Same read-out and setting: next, B6: 0.199.

Another assay deals with bovine serum albumin (bovine) (UniProt P02769). The experiment in a line: phage ELISA, 10^10 phagemid per well, BSA-only wells.
bovine serum albumin (bovine), sequence (P02769 25-607 limits assumed): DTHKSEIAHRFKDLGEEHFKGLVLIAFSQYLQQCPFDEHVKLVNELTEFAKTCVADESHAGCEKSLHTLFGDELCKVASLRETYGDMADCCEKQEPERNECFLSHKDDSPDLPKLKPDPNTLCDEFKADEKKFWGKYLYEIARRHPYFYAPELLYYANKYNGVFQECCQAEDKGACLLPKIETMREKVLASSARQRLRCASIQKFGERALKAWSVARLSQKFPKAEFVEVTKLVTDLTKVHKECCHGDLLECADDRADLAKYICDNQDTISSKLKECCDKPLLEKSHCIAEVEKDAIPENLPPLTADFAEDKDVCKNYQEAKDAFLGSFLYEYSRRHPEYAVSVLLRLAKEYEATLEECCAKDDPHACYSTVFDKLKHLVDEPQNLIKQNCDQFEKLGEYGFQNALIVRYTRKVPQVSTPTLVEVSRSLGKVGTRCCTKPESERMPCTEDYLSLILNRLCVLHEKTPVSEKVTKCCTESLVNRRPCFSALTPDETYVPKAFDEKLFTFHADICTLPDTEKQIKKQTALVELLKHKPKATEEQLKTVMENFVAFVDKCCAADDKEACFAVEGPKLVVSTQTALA
Molecule B1 had an ELISA (absorbance units) (absorbance units) of 0.141.
As to B2, the ELISA (absorbance units) (absorbance units) amounted to 0.275.
On the same count and under the same terms, next, B3: 0.221.
The same measure, in the same setting: next, B4: 0.304.
Still for that read-out and setting: next, B5: 0.112; B6: 0.327.

The target is the same in a further assay. As to the kind of experiment: phage ELISA, 10^9 phagemid per well, BSA-only wells.
In the case of B1, the ELISA (absorbance units) (absorbance units) is 0.147.
Still for that read-out and setting: next, B2: 0.27; B3: 0.22; B4: 0.278.
Still for that read-out and setting: next, B5: 0.114; B6: 0.277.

The next assay deals with unrelated control antibody. As to the kind of experiment: phage ELISA, 10^10 phagemid per well, wells coated with control mAb.
Take B1: the ELISA (absorbance units) (absorbance units) was found to be 0.148.
In turn, B2 displayed an ELISA (absorbance units) (absorbance units) of 0.203.
Same read-out and setting: the same measure for B3: 0.213; for B4: 0.242; for B5: 0.125.
B6 yielded an ELISA (absorbance units) (absorbance units) of 0.228.

The target in a further assay is bovine serum albumin (bovine) (UniProt P02769). The experiment in a line: phage ELISA, 10^8 phagemid per well, BSA-only wells.
The molecule B1 had an ELISA (absorbance units) (absorbance units) of 0.127.
Same read-out and setting: the same measure for B2: 0.254; for B3: 0.216; for B4: 0.268.
On the same count and under the same terms, next, B5: 0.109; B6: 0.264.

A further assay concerns the target unrelated control antibody. As to the kind of experiment: phage ELISA, 10^8 phagemid per well, wells coated with control mAb.
Molecule B1 gave an ELISA (absorbance units) (absorbance units) of 0.125.
Still for that read-out and setting: next, B2: 0.173; B3: 0.209.
For the molecule B4, the ELISA (absorbance units) (absorbance units) is 0.252.
Molecule B5 gave an ELISA (absorbance units) (absorbance units) of 0.116.
Still for that read-out and setting: next, B6: 0.188.

(Values after patent US20110020379A1.)
